According to patent publication US20100184658A1 (published 2010):

Legend:
Assay in all cases: cell-based or functional assay
IKBKB (IKK beta) IKK2 = biological target: T1, IKBKB (IKK beta) IKK2 (human (printed as (h)), UniProt O14920 1-756, limits assumed)
T1 sequence (looked up): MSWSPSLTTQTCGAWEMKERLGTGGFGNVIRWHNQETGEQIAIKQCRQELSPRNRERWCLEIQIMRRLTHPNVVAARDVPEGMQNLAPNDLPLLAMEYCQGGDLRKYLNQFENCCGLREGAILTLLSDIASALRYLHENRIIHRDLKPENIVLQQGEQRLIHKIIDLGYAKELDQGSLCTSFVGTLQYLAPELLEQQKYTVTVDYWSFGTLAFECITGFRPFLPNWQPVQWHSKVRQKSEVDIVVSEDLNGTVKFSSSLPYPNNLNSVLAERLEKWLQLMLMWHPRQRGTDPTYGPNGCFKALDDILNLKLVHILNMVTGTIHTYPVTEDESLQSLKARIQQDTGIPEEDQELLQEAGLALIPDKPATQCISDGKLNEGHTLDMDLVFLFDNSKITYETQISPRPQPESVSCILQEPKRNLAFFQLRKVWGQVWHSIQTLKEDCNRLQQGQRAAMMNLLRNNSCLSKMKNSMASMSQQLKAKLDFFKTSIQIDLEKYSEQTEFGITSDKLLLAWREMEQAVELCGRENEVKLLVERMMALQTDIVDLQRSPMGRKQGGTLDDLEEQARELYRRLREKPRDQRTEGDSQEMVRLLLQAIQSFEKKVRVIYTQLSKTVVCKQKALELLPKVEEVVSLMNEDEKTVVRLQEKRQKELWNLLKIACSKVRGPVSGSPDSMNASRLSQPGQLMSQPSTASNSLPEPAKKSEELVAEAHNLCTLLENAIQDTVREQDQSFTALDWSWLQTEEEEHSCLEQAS

ROCK2 = ROCK2 (UniProt O75116 5-554, limits assumed)
[1] = biological target: STK24 (MST3) Serine/threonine kinase 24 (STE20 homolog, yeast) (UniProt Q9Y6E0 1-443, limits assumed)
PHKG1 = PHKG1 (UniProt Q16816 1-387, limits assumed)
BRSK1 (SAD1) = biological target: T2, BRSK1 (SAD1) (UniProt Q8TDC3 1-778, limits assumed)
T2 sequence (looked up): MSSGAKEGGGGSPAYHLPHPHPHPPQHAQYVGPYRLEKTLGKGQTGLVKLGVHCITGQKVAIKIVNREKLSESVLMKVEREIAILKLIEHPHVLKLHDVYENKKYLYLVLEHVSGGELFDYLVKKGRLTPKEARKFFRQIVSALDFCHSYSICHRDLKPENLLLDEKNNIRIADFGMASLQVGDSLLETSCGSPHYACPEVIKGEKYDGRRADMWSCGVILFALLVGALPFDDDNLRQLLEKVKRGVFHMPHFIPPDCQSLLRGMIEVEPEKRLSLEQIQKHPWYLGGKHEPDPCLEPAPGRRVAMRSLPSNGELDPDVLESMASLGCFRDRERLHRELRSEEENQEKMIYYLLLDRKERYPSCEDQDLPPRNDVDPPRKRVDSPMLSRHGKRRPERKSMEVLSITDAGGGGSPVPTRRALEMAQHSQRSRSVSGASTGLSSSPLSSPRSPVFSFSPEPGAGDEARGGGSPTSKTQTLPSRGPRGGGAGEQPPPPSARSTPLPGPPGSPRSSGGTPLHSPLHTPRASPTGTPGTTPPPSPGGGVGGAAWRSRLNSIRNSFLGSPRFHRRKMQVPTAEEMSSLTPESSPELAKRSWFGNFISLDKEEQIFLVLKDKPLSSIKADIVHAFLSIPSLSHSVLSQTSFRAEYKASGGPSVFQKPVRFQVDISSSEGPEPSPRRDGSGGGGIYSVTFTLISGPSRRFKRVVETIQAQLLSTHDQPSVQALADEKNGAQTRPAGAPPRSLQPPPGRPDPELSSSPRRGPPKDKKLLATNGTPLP

ADRBK1 (GRK2) = biological target: T3, ADRBK1 (GRK2) (UniProt P25098 1-689, limits assumed)
T3 sequence (looked up): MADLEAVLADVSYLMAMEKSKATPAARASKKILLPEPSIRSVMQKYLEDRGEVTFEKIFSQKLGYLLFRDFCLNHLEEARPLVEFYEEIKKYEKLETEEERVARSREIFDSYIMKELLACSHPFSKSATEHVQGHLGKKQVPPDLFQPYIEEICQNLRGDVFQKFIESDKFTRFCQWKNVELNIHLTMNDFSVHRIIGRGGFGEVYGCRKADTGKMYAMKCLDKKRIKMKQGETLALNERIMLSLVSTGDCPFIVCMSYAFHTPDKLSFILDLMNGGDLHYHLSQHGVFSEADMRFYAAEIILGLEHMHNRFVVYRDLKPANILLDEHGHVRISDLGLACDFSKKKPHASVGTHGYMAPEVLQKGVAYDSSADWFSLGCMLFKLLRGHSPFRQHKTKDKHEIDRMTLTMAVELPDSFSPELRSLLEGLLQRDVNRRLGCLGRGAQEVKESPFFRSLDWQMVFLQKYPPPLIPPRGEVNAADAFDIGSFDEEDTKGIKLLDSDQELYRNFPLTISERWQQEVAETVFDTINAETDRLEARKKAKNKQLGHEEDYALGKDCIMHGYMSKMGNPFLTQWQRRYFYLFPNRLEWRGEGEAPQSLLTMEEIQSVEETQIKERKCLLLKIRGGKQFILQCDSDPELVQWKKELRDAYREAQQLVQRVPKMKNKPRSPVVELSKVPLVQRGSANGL

[2] = biological target: MAPK9 (JNK2) Mitogen-activated protein kinase 9 (UniProt P45984 1-424, limits assumed)
[3] = biological target: MAPK10 (JNK3) Mitogen-activated protein kinase 10 (UniProt P53779 1-464, limits assumed)
Also: test concentration or dose not given here.

STK24 (MST3) Serine/threonine kinase 24 (STE20 homolog, yeast), sequence (Q9Y6E0 whole entry): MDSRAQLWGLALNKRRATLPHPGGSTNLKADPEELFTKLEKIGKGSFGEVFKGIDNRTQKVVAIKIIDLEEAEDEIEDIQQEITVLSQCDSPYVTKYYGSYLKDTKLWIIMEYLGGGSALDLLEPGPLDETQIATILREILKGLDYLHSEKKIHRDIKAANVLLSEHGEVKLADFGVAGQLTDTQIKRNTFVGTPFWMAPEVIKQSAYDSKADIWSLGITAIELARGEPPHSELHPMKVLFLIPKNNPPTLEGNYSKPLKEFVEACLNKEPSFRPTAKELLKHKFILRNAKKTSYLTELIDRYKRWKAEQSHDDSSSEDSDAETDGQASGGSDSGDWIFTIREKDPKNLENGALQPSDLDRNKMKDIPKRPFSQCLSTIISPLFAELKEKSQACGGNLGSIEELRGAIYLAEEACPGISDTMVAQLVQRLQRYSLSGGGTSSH
ROCK2, sequence (O75116 5-554 limits assumed): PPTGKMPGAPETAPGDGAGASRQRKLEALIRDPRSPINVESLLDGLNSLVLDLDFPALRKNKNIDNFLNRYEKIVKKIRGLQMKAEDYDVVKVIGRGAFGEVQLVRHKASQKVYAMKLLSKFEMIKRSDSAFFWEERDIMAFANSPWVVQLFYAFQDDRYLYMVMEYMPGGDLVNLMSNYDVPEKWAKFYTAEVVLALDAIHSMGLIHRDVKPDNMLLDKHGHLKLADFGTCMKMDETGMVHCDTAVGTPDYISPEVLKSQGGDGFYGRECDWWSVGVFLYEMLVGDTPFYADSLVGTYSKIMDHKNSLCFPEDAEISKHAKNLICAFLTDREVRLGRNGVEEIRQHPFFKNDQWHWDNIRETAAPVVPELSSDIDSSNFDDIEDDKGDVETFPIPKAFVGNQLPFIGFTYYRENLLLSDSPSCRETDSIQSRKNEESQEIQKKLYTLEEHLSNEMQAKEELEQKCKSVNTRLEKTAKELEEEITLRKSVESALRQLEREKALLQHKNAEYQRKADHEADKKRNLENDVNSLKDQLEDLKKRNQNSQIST
PHKG1, sequence (Q16816 whole entry): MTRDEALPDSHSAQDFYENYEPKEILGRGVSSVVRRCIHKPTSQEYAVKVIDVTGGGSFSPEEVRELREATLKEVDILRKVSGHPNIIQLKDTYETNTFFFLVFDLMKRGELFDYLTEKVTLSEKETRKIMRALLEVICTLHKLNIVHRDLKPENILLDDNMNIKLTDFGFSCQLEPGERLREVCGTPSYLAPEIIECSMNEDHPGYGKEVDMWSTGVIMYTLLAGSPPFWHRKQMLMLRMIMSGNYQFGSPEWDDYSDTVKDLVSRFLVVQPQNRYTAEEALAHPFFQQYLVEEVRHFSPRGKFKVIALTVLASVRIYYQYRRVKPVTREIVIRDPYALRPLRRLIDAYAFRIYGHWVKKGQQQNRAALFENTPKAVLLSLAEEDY
MAPK10 (JNK3) Mitogen-activated protein kinase 10, sequence (P53779 whole entry): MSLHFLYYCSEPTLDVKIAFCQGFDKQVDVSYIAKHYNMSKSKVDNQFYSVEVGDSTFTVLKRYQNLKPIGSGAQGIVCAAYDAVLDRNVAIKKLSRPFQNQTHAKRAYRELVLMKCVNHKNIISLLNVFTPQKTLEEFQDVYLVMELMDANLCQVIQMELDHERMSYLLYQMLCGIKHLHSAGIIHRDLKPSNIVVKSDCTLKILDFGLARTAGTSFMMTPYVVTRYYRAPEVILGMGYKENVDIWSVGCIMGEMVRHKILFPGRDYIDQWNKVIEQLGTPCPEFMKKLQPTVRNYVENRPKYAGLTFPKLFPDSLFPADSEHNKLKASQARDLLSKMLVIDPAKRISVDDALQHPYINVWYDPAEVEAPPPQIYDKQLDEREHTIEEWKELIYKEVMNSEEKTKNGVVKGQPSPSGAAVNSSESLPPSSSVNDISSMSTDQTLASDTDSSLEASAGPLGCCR

**Q.** Which results are given for SGRPPMIVWFNRPFLIAVSHTHGQTILFMAKVINPVGA [D3 peptide]?
**A.** % Inhibition mean (IKBKB (IKK beta) IKK2): 41%; % Inhibition mean (ROCK2): 66.7%; % Inhibition mean [1]: 98.6%; % Inhibition mean (PHKG1): 54.8%; % Inhibition mean (BRSK1 (SAD1)): 83.5%; % Inhibition mean (ADRBK1 (GRK2)): 56.1%; % Inhibition mean [2]: 92.9%; % Inhibition mean [3]: 90.7%
